Residue numbers refer to the chain shown, from its start. Numbers in names are those of the source.
B1: jrPPO1-wt (Juglans regia; V207I) (protein)
chain: DPVSAPELTLCSEADLPAGALPVNCCPPTSKKIKDFVLPSQNTPLRVRPAAHLVDNDYIAKYNKGIELMKSLPADDPRSFTQQANVHCAYCDGAYTQVGFPDLSLQIHECWLFFPFHRYYVYFFEKILGKLIGDPTFALPFWNWDSPPGMQLPSLYAVSNSAIYDPLRNANHQPPTIIDLDYGETSESTTTTDQVPSNLKIMYRQMVSGAKNPTLFFGSPYRAGDEPDPGAGTIESTPHNNIHLWTGDDTQPNIENMGNFYSAGRDPIFFAHHSNVDRMWTIWKTLGGKRKDITDPDWLNSSFFFYDENADPVRVKVKDCVDNTKLRYVYQDVEIPWLKTKPTPRKSRVKKVAKAFPAGHGGVAQAAETSSVKFPIVLDKVISTVVARPKKSRSKKEKDDEEEVLVIEGIEVERDIPVKFDVFINDEDDAPTGPGINTEFAGSFVSVPQQKQTKKKKTYLRIGISDLLEDLGAEDDDSVVVTLVPRFGKGKAIIGGIKIVLIG
notes: latent pro-enzyme (active domain + C-terminal domain) without transit peptide; E. coli BL21(DE3), pGEX-6P-1, N-terminal GST tag cut with HRV-3C protease; cloned from walnut leaf cDNA, Val107Ile versus FJ769240.1
B2: jrPPO1-wt (Juglans regia; L344R/N340K/V307I) (protein)
chain: B1 chain with I107V, V207I, N240K, L244R
notes: as for B1
B3: jrPPO1-wt (Juglans regia; L344R/N340T/V307I) (protein)
chain: B1 chain with I107V, V207I, N240T, L244R
notes: as for B1
B4: jrPPO1-wt (Juglans regia; F360G/V307I) (protein)
chain: B1 chain with I107V, V207I, F260G
notes: as for B1
B5: jrPPO1-wt (Juglans regia; L344R/V307I) (protein)
chain: B1 chain with I107V, V207I, L244R
notes: as for B1
B6: jrPPO1-wt (Juglans regia; N340K/V307I) (protein)
chain: B1 chain with I107V, V207I, N240K
notes: as for B1

Each protein was assayed on NCCc1ccc(O)c(O)c1 (assay: spectrophotometric quinone formation). Details: 50 mM sodium phosphate pH 6.0, 2 mM SDS as activator, 25 °C, diphenolase.
Format: biochemical, Juglans regia
Text: (§1) spectrophotometric quinone formation on jrPPO1-wt
In the case of B1, the Km is reported as 0.75 ± 0.13 mM, the kcat is reported as 92.5 ± 7.8 s⁻¹ and the kcat/Km is reported as 123000 ± 24000 M⁻¹ s⁻¹. In the case of B2, the Km is reported as 6.8 ± 1.3 mM, the kcat is reported as 0.029 ± 0.002 s⁻¹ and the kcat/Km is reported as 4.28 ± 0.85 M⁻¹ s⁻¹. Protein B3 has a Km of 6.6 ± 1.5 mM, a kcat of 0.789 ± 0.079 s⁻¹ and a kcat/Km of 122 ± 26 M⁻¹ s⁻¹. In the case of B4, the Km is reported as 1.2 ± 0.4 mM, the kcat is reported as 7.36 ± 0.98 s⁻¹ and the kcat/Km is reported as 5900 ± 2200 M⁻¹ s⁻¹. B5 gave a Km of 2.36 ± 0.41 mM, a kcat of 24.9 ± 1.6 s⁻¹ and a kcat/Km of 10600 ± 2000 M⁻¹ s⁻¹. With B6 the Km was 19.8 ± 4.7 mM, the kcat was 2.51 ± 0.4 s⁻¹ and the kcat/Km was 132 ± 97 M⁻¹ s⁻¹.

The proteins below were run on NCCc1ccc(O)cc1 (assay: spectrophotometric quinone formation). Details: 50 mM sodium phosphate pH 6.0, 2 mM SDS as activator, 25 °C, monophenolase.
Format: biochemical, Juglans regia
Text: as §1
Protein B1 has a Km of 0.451 ± 0.084 mM, a kcat of 24.7 ± 1.5 s⁻¹ and a kcat/Km of 55000 ± 11000 M⁻¹ s⁻¹. In the case of B4, the Km is reported as 3.05 ± 0.72 mM, the kcat is reported as 0.323 ± 0.025 s⁻¹ and the kcat/Km is reported as 103 ± 26 M⁻¹ s⁻¹. B5 showed a Km of 2.68 ± 0.53 mM, a kcat of 1.62 ± 0.09 s⁻¹ and a kcat/Km of 600 ± 120 M⁻¹ s⁻¹. Work on B6 yielded a Km of 8.2 ± 1.4 mM, a kcat of 0.0542 ± 0.0034 s⁻¹ and a kcat/Km of 6.6 ± 1.2 M⁻¹ s⁻¹.

The proteins below were run on N[C@@H](Cc1ccc(O)c(O)c1)C(=O)O (assay: spectrophotometric quinone formation). Details: 50 mM sodium phosphate pH 6.0, 2 mM SDS as activator, 25 °C, diphenolase.
Format: biochemical, Juglans regia
Text: as §1
Protein B1 has a Km of 6.2 ± 1.0 mM, a kcat of 111 ± 8.8 s⁻¹ and a kcat/Km of 18100 ± 3400 M⁻¹ s⁻¹. Work on B2 yielded a Km of 16.5 ± 4.8 mM, a kcat of 0.104 ± 0.019 s⁻¹ and a kcat/Km of 6 ± 2.1 M⁻¹ s⁻¹. B3 was tested, and the Km was 13.1 ± 3.3 mM, the kcat was 0.18 ± 0.027 s⁻¹ and the kcat/Km was 12.9 ± 4 M⁻¹ s⁻¹.

The proteins below were run on N[C@@H](Cc1ccc(O)cc1)C(=O)O (assay: spectrophotometric quinone formation). Details: 50 mM sodium phosphate pH 6.0, 2 mM SDS as activator, 25 °C, monophenolase.
Format: biochemical, Juglans regia
Text: as §1
B1 gave a Km of 1.42 ± 0.37 mM, a kcat of 6 ± 1.1 s⁻¹ and a kcat/Km of 4300 ± 1400 M⁻¹ s⁻¹.
